From patent US20150023979A1 (VALDOSPAN, published 2015)

B1: ACAB452 (antibody, IgG1, V domains shown)
VH: DVQLQESGPGLVKPSQSLSLTCTVTGYSITSDYAWNWIRQFPGNKLEWVGYITYSGSTNYNPSLKSRISITRDTSKNQFFLQFNSVTSEDTATYFCARSWFAYWGQGTLVTVSS
VL: DIVMTQTPLSLPVSLGDQASISCRSSQSLVHSNGNTYLHWFLQKPGQSPKLLIYKVSNRFSGVPDRFSGSGSGTDFTLKISRVEAEDLGVYFCLQSAHVPLTFGAGTKLELTR
notes: also called HPV45E7 IgG1 antibody ACAB452
B2: ACAB164 (antibody, V domains shown)
VH: EVQLQQSGLALVQPGASVKISCRTSGYTFTEYTLHWVKQSHGKSLEWIGGINPNNGSPKYNQKFKGKATLTVDKSSSTAYMELRSLTSEDSAVYYCARLDINSFFDYWGQGTTLTVSS
VL: DVVMTQSPLSLPVSLGDQASISCRSSQSLVHSNGNTYLQWYLQKPGQSPKLLIYKLSNRFSGVPDRFSGSGSGTDFTLKISRVEAEDLGVYSCSQTTHVPPTFGGGTKLEIKR
notes: the printed entries run on into the first residues of the constant domains; also called HPV16E7 IgG2a antibody ACAB164

What was measured:
[1] = target: T1, HPV45 E7 protein, recombinant (His-TEV-E7 fusion from E. coli) (Human Papilloma Virus type 45 (HPV45), UniProt P21736 1-106, CKII phosphorylation of the consensus site serines in the antigen preparation of Example 2; biotin on primary amines in the SPR assay); assay: SPR (BIAcore X100), biotin-E7 on streptavidin SA chip, antibody as analyte, bivalent analyte fit, 25 C
T1 construct: mature; also called VE7_HPV45; not shown: N-terminal 6x Histidine tag and TEV cleavage site of the vector
T1 sequence: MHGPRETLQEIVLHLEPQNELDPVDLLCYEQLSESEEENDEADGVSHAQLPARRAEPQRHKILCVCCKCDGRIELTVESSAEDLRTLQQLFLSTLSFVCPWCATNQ

[2] = target: T2, HPV18 E7 protein, recombinant (His-TEV-E7 fusion from E. coli) (Human Papilloma Virus type 18 (HPV18), UniProt P06788 1-105, CKII phosphorylation of the consensus site serines in the antigen preparation of Example 2; biotin on primary amines in the SPR assay); assay: as above
T2 construct: mature; also called VE7_HPV18; not shown: N-terminal 6x Histidine tag and TEV cleavage site of the vector
T2 sequence: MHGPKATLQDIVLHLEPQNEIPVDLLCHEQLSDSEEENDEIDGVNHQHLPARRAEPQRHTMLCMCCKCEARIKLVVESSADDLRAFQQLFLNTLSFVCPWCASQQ

[3] = target: T3, HPV58 E7 protein, recombinant (His-TEV-E7 fusion from E. coli) (Human Papilloma Virus type 58 (HPV58), UniProt P26557 1-98, CKII phosphorylation of the consensus site serines in the antigen preparation of Example 2); assay: ELISA, HPV58E7 immobilised on polystyrene plates in 3-fold dilution steps, detected with ACAB452
T3 construct: mature; also called VE7_HPV58; not shown: N-terminal 6x Histidine tag and TEV cleavage site of the vector
T3 sequence: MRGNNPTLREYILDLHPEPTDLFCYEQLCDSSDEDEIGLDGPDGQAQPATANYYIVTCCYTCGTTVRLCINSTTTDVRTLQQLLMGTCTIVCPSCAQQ

[4] = target: T4, HPV31 E7 protein, recombinant (His-TEV-E7 fusion from E. coli) (Human Papilloma Virus type 31 (HPV31), UniProt P17387 1-98, CKII phosphorylation of the consensus site serines in the antigen preparation of Example 2); assay: ELISA, HPV31E7 immobilised on polystyrene plates in 3-fold dilution steps, detected with ACAB452; no concentrations printed on the X axis
T4 construct: mature; also called VE7_HPV31; not shown: N-terminal 6x Histidine tag and TEV cleavage site of the vector
T4 sequence: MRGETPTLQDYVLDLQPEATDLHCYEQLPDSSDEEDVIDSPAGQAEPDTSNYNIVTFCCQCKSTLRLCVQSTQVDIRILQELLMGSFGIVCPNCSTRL

[5] = target: T2, HPV18 E7 protein, recombinant …; assay: ELISA and dot-blot, semiquantitative crossreactivity
Experimental: (§1) Using ELISA and dot-blot techniques semiquantitative crossreactivities of the isolated mAbs was analysed. For this various mAbs were tested against the accepted high risk species.

[6] = target: T3, HPV58 E7 protein, recombinant …; assay: ELISA and dot-blot, semiquantitative crossreactivity (++ strong positive)
Experimental: as §1

Row | Binder | Kd [1] [nM] | kon [1] [M⁻¹ s⁻¹] | kon [2] [M⁻¹ s⁻¹] | binding result [3] | binding result [4] | binding result [5] | binding result [6]
1 | B1 | 10.6 | 52100 | 94700 | no binding (tested: 800 nM immobilised antigen (per legend)) | binds | – | –
2 | B2 | – | – | – | – | – | no binding | binds
